From patent US7790682B1, “Engineered human acidic fibroblast growth factors and associated methods” (The Florida State University Research Foundation, Inc., priority 2003, dated 2010)
Entries after “also recorded” stand apart in the source; their conditions may differ.

Legend:
[1] = Heparin Sepharose affinity chromatography / heparin-binding affinity; conditions: predicted from data on other Δ120-122 mutants
Source text: All studies herein disclosed utilized a synthetic gene for the 140 amino acid form of human FGF-1 with the addition of an amino-terminal six residue “His-tag” to facilitate purification using nickel nitrilotriacetic acid (Ni-NTA) affinity resin (QIAGEN, Valencia Calif.). The QuikChange® site-directed mutagenesis protocol (Stratagene, La Jolla Calif.) was used to introduce mutations, individually or in combination, using mutagenic oligonucleotides of 25 to 31 bases in length (Biomolecular Analysis Synthesis and Sequencing Laboratory, Florida State University). For deletions involving residues 104-106 and 120-122, mutagenic oligonucleotides were used to delete these positions as well as to simultaneously create point mutations Ala103 ? Gly and Arg119 ? Gly, respectively. […]
All mutant proteins, with the exception of the SYM6 mutant were expressed at levels similar to the WT* protein (i.e. ˜30-100 mg/L). […] Phe, and E280nm (0.1%, 1 cm)=1.31 for all deletion mutations (determined by dithionitrobenzoate titration of cysteine residues).
To quantify the reduced affinity for heparin (a polysulfonated polysaccharide) we determined the affinity for sucrose octasulfate, a structural mimic of a heparin dimer, by isothermal titration calorimetry. […]

NIH 3T3 fibroblasts = assay: Cell proliferation (mitogenic activity) assay; format: cell-based; conditions: predicted from data on other Δ120-122 mutants
Method: NIH 3T3 fibroblasts were initially plated in Dulbecco's modified Eagle's medium (DMEM) (American Type Culture Collection, Manassas Va.) supplemented with 10% (v/v) newborn calf serum (NCS) (Sigma, St. Louis Mo.), 100 units of penicillin, 100 μg streptomycin, 0.25 μg Fungizone™ and 0.01 mg/ml gentamicin (Gibco, Carlsbad Calif.) (“serum-rich” medium) in T75 tissue culture flasks (Fisher, Pittsburgh Pa.). The cultures were incubated at 37° C. and all cell growth was performed with 5% CO2 supplementation. At approximately 80% cell confluence, the cells were washed with 5 ml cold 0.14M NaCl, 5.1 mM KCl, 0.7 mM Na2HPO4 and 24.8 mM Trizma® base, pH 7.4 (TBS) and subsequently treated with 5 ml of a 0.025% trypsin solution (Invitrogen Corp., Carlsbad Calif.). Cell synchronization was initiated by serum starvation in DMEM with 0.5% NCS, 100 units of penicillin, 100 μg streptomycin, 0.25 μg Fungizone™ and 0.01 mg/ml gentamicin (“starvation” medium). The cells were seeded in T25 tissue culture flasks (Fisher, Pittsburgh, Pa.) at a cell density of 3.0×10^4 cells/cm^2 (representing ˜20% confluence). Duplicate flasks were used for each protein concentration. Cultures were incubated for 48 hours at 37° C., the medium was then decanted and replaced with fresh medium supplemented with the appropriate concentration of FGF-1 polypeptide, and incubated for an additional 48 hours. After this incubation, the medium was decanted and the cells were washed with 1 ml cold TBS pH 7.4. 1 ml of 0.025% trypsin was then added to release the cells from the flask surface, and 2 ml of serum-rich medium were added to dilute and inhibit the trypsin. The cells were counted using a hemocytometer (Hausser Scientific Partnership, Horsham Pa.). Experiments were performed in quadruplicate and the cell densities were averaged. The relationship between the cell number and log concentration of added growth factor was fit to a sigmoidal function.
Mitogenic activity towards NIH 3T3 fibroblasts was determined for WT*, SYM5, SYM5Δ104-106, SYM5Δ120-122, and SYM6ΔΔ mutants. […] The NIH 3T3 fibroblast proliferative activity of WT* FGF-1 yielded an effective concentration for 50% maximal stimulation (EC50) of 60 ng/ml (FIG. 3).

[2] = Isothermal equilibrium denaturation in guanidine HCl monitored by CD; format: physicochemical; conditions: relative to SYM6ΔΔ
Method: Protein samples were equilibrated overnight in 20 mM N-2-(acetamido)iminodiacetic acid (ADA), 100 mM NaCl pH 6.60 at 298K in 0.1M increments of guanidine HCl (GuHCl). All samples contained a final protein concentration of 25 μM. An Aviv model 202 circular dichroism spectrometer (Proterion Corp., Piscataway, N.J.) equipped with a Peltier controlled temperature unit maintaining a constant temperature of 298K was used for all spectroscopic measurements. For each sample, triplicate scans were collected and averaged. Buffer traces were collected, averaged and subtracted from the sample traces. Data smoothing was performed prior to buffer subtraction using a 5-point Fourier transform filter. The denaturation process was monitored by observing the change in CD signal at 227 nm with increasing GuHCl, according to published references. The general purpose non-linear least squares fitting program DataFit™ (Oakdale Engineering, Oakdale Pa.) was used to fit the change in molar ellipticity at 227 nm versus GuHCl concentration to a six parameter two state model: F=(F0N+SN[D]+F0D+SD[D])e^−((ΔG0+m[D]/RT)/1+e^−((ΔG0+m[D]/RT) (1) where [D] is the denaturant concentration, F0N and F0D are the 0M denaturant molar ellipticity intercepts for the native and denatured states, respectively, and SN and SD are the slopes of the native and denatured state baselines, respectively. ΔG0 and m describe the linear function of the unfolding free energy versus denaturant concentration at 298K. The effect of a given mutation upon the stability of the protein (ΔΔG) was calculated by taking the difference between the Cm values for WT* and mutant and multiplying by the average of the m values, as described by Pace and Scholtz (Measuring the conformational stability of a protein; in Protein Structure: A Practical Approach, Creighton, T. E., ed., pp. 299-321, Oxford University Press, Oxford; 1997): ΔΔG=(CmWT*−Cm mutant)(mWT*+mmutant)/2 (2) Folding Kinetics Measurements.
Previous studies by others of the stability and folding of FGF-1 have been performed by monitoring the fluorescence signal of the single buried Trp 107 in FGF-1. This Trp in the WT* structure is somewhat unusual in that it is more highly quenched in the native state than the denatured. […] We have previously compared the fluorescence and CD spectroscopic response of FGF-1 to denaturation by GuHCl and shown essentially indistinguishable results for both his-tagged and non-his-tagged forms. A tabulation of the mutant thermodynamic data from isothermal equilibrium denaturation, monitored by CD signal, is listed in Table II. The data in this table for the SYM6 mutant are from our previously published isothermal equilibrium denaturation study monitored by fluorescence.

[3] = Precipitation during purification or concentration; format: physicochemical
Method: All mutant proteins, with the exception of the SYM6 mutant were expressed at levels similar to the WT* protein (i.e. ˜30-100 mg/L). […] The His-tag provides the WT* and mutant FGF-1 proteins with nickel binding affinity, and FGF-1 naturally has a heparin binding site. These two affinity sites were employed in a purification scheme utilizing sequential nickel-NTA and heparin Sepharose® affinity chromatography resins. However, mutant forms of FGF-1 involving the Δ120-122 mutation lacked heparin-binding affinity. These mutants were, therefore, purified by the substitution of gel filtration chromatography for the heparin Sepharose® affinity chromatography. The extinction coefficients used for concentration determination were E280nm (0.1%, 1 cm)=1.26 for WT* and other mutations not involving deletions or the Leu44 ? […] Phe, and E280nm (0.1%, 1 cm)=1.31 for all deletion mutations (determined by dithionitrobenzoate titration of cysteine residues).
Due to the relatively weak differential CD signal of native and denatured FGF-1, the folding kinetics study required relatively high protein concentrations (>5 mg/ml). […] The SYM6Δ120-122 mutant is substantially destabilized relative to the WT* protein (see Table II) and presents a relatively short “folding arm” in the Chevron plot, for this reason there is greater uncertainty associated with the folding kinetics determined for this mutant. […]

[4] = monitored by fluorescence signal, cited from earlier work

| heparin binding affinity, predicted [1] | Molecule | mitogenicity, predicted (NIH 3T3 fibroblasts) | effect on stability of the two loop insertions [2] | precipitation / solubility (in words) [3] | Cm ([4]; previously reported) [M] | m-value ([4]; previously reported) [kJ/mol M] | ΔG0 ([4]; previously reported) [kcal/mol] | ΔΔG ([4]; relative to WT*, previously reported data) [kcal/mol] |
| --- | --- | --- | --- | --- | --- | --- | --- | --- |
| decreased heparin binding affinity | WTΔ120-122: Wild type FGF-1 polypeptide with a deletion at positions 120-122, SEQ ID NO: 3 (protein, Human FGF-1 mutant WTD120-122) FNLPPGNYKKPKLLYCSNGGHFLRILPDGTVDGTRDRSDQHIQLQLSAESVGEVYIKSTETGQYLAMDTDGLLYGSQTPNEECLFLERLEENHYNTYISKKHAEKNWFVGLKKNGSCKGTHYGQKAILFLPLPVSSD | increased biological activity with regard to mitogenicity | – | – | – | – | – | – |
| – | SYM6: FGF-1 core mutant Leu44→Phe/Met67→Ile/Leu73→Val/Val109→Leu/Leu111→Ile/Cys117→Val (protein, UniProt P05230 16-155, looked up, variant L44F M67I L73V V109L L111I C117V) Fibroblast growth factor 1: FNLPPGNYKKPKLLYCSNGGHFLRILPDGTVDGTRDRSDQHIQFQLSAESVGEVYIKSTETGQYLAIDTDGLVYGSQTPNEECLFLERLEENHYNTYISKKHAEKNWFLGIKKNGSVKRGPRTHYGQKAILFLPLPVSSD | – | +25.3 kJ/mol | tendency to precipitate during purification; also recorded: typically precipitated during concentration | 0.54 ± 0.01 | 19.3 ± 1.9 | 2.49 ± 0.19 | 2.44 |
